Data as given in US20250320281A1.

Legend:
[1] = target: HIV-1 92RW020 Env (pseudovirus) (HIV-1); assay: cell-based or functional assay
[2] = target: HIV-1 92TH021 Env (pseudovirus) (HIV-1); assay: cell-based or functional assay
[3] = target: HIV-1 92UG005 Env (pseudovirus) (HIV-1); assay: cell-based or functional assay
[4] = target: HIV-1 92UG024 Env (pseudovirus) (HIV-1); assay: cell-based or functional assay
[5] = target: HIV-1 93IN905 Env (pseudovirus) (HIV-1); assay: cell-based or functional assay
[6] = target: HIV-1 94UG103 Env (pseudovirus) (HIV-1); assay: cell-based or functional assay
[7] = target: HIV-1 APV6 Env (pseudovirus) (HIV-1); assay: cell-based or functional assay
[8] = target: HIV-1 CMU02 Env (pseudovirus) (HIV-1); assay: cell-based or functional assay
[9] = target: HIV-1 Env of isolate MGRM-C-001 (HIV-1); assay: cell-based or functional assay
[10] = target: HIV-1 Env of isolate MGRM-C-002 (HIV-1); assay: cell-based or functional assay
[11] = target: HIV-1 Env of isolate MGRM-C-004 (HIV-1); assay: cell-based or functional assay
[12] = target: HIV-1 Env of isolate MGRM-C-005 (HIV-1); assay: cell-based or functional assay
[13] = target: HIV-1 Env of isolate MGRM-C-006 (HIV-1); assay: cell-based or functional assay
[14] = target: HIV-1 Env of isolate MGRM-C-007 (HIV-1); assay: cell-based or functional assay
[15] = target: HIV-1 Env of isolate MGRM-C-008 (HIV-1); assay: cell-based or functional assay
[16] = target: HIV-1 Env of isolate MGRM-C-009 (HIV-1); assay: cell-based or functional assay
[17] = target: HIV-1 Env of isolate MGRM-C-010 (HIV-1); assay: cell-based or functional assay
[18] = target: HIV-1 Env of isolate MGRM-C-012 (HIV-1); assay: cell-based or functional assay
[19] = target: HIV-1 Env of isolate MGRM-C-013 (HIV-1); assay: cell-based or functional assay
[20] = target: HIV-1 Env of isolate MGRM-C-014 (HIV-1); assay: cell-based or functional assay
[21] = target: HIV-1 Env of isolate MGRM-C-015 (HIV-1); assay: cell-based or functional assay
[22] = target: HIV-1 Env of isolate MGRM-C-017 (HIV-1); assay: cell-based or functional assay
[23] = target: HIV-1 Env of isolate MGRM-C-019 (HIV-1); assay: cell-based or functional assay
[24] = target: HIV-1 Env of isolate MGRM-C-020 (HIV-1); assay: cell-based or functional assay
[25] = target: HIV-1 Env of isolate MGRM-C-022 (HIV-1); assay: cell-based or functional assay
[26] = target: HIV-1 Env of isolate MGRM-C-023 (HIV-1); assay: cell-based or functional assay
[27] = target: HIV-1 Env of isolate MGRM-C-024 (HIV-1); assay: cell-based or functional assay
[28] = target: HIV-1 Env of isolate MGRM-C-025 (HIV-1); assay: cell-based or functional assay
[29] = target: HIV-1 Env of pseudovirus isolate MGRM-G-001 (HIV-1); assay: cell-based or functional assay
[30] = target: HIV-1 Env of pseudovirus isolate MGRM-G-004 (HIV-1); assay: cell-based or functional assay
[31] = target: HIV-1 Env of pseudovirus isolate MGRM-G-006 (HIV-1); assay: cell-based or functional assay
[32] = target: HIV-1 Env of pseudovirus isolate MGRM-G-009 (HIV-1); assay: cell-based or functional assay
[33] = target: HIV-1 Env of pseudovirus isolate MGRM-G-011 (HIV-1); assay: cell-based or functional assay
[34] = target: HIV-1 Env of pseudovirus isolate MGRM-G-013 (HIV-1); assay: cell-based or functional assay
[35] = target: HIV-1 Env of pseudovirus isolate MGRM-G-014 (HIV-1); assay: cell-based or functional assay
[36] = target: HIV-1 Env of pseudovirus isolate MGRM-G-015 (HIV-1); assay: cell-based or functional assay
[37] = target: HIV-1 Env of pseudovirus isolate MGRM-G-016 (HIV-1); assay: cell-based or functional assay
[38] = target: HIV-1 Env of pseudovirus isolate MGRM-G-017 (HIV-1); assay: cell-based or functional assay
[39] = target: HIV-1 Env of pseudovirus isolate MGRM-G-019 (HIV-1); assay: cell-based or functional assay
[40] = target: HIV-1 Env of pseudovirus isolate MGRM-G-027 (HIV-1); assay: cell-based or functional assay
[41] = target: HIV-1 JRCSF Env (pseudovirus) (HIV-1) (UniProt P20871); assay: cell-based or functional assay
[42] = target: HIV-1 MGRM-A-010 Env (pseudovirus) (HIV-1); assay: cell-based or functional assay
[43] = target: HIV-1 MGRM-C-026 Env (pseudovirus) (HIV-1); assay: cell-based or functional assay
[44] = target: HIV-1 MGRM-C-027 Env (pseudovirus) (HIV-1); assay: cell-based or functional assay
[45] = target: HIV-1 MGRM-C-028 Env (pseudovirus) (HIV-1); assay: cell-based or functional assay
[46] = target: HIV-1 MGRM-D-018 Env (pseudovirus) (HIV-1); assay: cell-based or functional assay
[47] = target: HIV-1 NL43 Env (pseudovirus) (HIV-1); assay: cell-based or functional assay
[48] = target: envelope of aMLV pseudovirus (negative control); assay: cell-based or functional assay
[49] = target: WT JR-FL gp120 (HIV-1); assay: ELISA, antigen-coated wells

4877_D15 (PGT-122) (antibody)
neutralization IC50 (pseudovirus) [1]: 0.0072 µg/mL | neutralization IC50 (pseudovirus) [2]: > 10 µg/mL | neutralization IC50 (pseudovirus) [3]: > 10 µg/mL | neutralization IC50 (pseudovirus) [4]: > 10 µg/mL | neutralization IC50 (pseudovirus) [5]: 0.0138 µg/mL | neutralization IC50 (pseudovirus) [6]: 1.46 µg/mL | neutralization IC50 (pseudovirus) [7]: 0.0851 µg/mL | neutralization IC50 (pseudovirus) [8]: > 10 µg/mL | neutralization IC50 [9]: 19.1 µg/mL | neutralization IC50 [10]: 0.022 µg/mL | neutralization IC50 [11]: 0.02 µg/mL | neutralization IC50 [12]: 0.027 µg/mL | neutralization IC50 [13]: 0.018 µg/mL | neutralization IC50 [14]: 3.35 µg/mL | neutralization IC50 [15]: 0.028 µg/mL | neutralization IC50 [16]: > 50 µg/mL | neutralization IC50 [17]: > 50 µg/mL | neutralization IC50 [18]: 2 µg/mL | neutralization IC50 [19]: 32.6 µg/mL | neutralization IC50 [20]: > 50 µg/mL | neutralization IC50 [21]: > 50 µg/mL | neutralization IC50 [22]: 0.015 µg/mL | neutralization IC50 [23]: > 50 µg/mL | neutralization IC50 [24]: 14 µg/mL | neutralization IC50 [25]: 0.012 µg/mL | neutralization IC50 [26]: 0.027 µg/mL | neutralization IC50 [27]: 0.102 µg/mL | neutralization IC50 [28]: 8.69 µg/mL | IC50 (µg/mL), pseudovirus neutralization [29]: 0.005 µg/mL | IC50 (µg/mL), pseudovirus neutralization [30]: 2.15 µg/mL | IC50 (µg/mL), pseudovirus neutralization [31]: > 50 µg/mL | IC50 (µg/mL), pseudovirus neutralization [32]: 0.514 µg/mL | IC50 (µg/mL), pseudovirus neutralization [33]: 31.3 µg/mL | IC50 (µg/mL), pseudovirus neutralization [34]: 3.45 µg/mL | IC50 (µg/mL), pseudovirus neutralization [35]: 0.008 µg/mL | IC50 (µg/mL), pseudovirus neutralization [36]: > 50 µg/mL | IC50 (µg/mL), pseudovirus neutralization [37]: > 50 µg/mL | IC50 (µg/mL), pseudovirus neutralization [38]: 0.032 µg/mL | IC50 (µg/mL), pseudovirus neutralization [39]: 0.016 µg/mL | IC50 (µg/mL), pseudovirus neutralization [40]: 0.606 µg/mL | neutralization IC50 (pseudovirus) [41]: 0.0727 µg/mL | neutralization IC50 (pseudovirus) [42]: 1.68 µg/mL | neutralization IC50 (pseudovirus) [43]: 0.0089 µg/mL | neutralization IC50 (pseudovirus) [44]: 0.0388 µg/mL | neutralization IC50 (pseudovirus) [45]: 2.06 µg/mL | neutralization IC50 (pseudovirus) [46]: 0.0115 µg/mL | neutralization IC50 (pseudovirus) [47]: > 10 µg/mL | IC50 (µg/mL), pseudovirus neutralization [48]: > 50 µg/mL | EC50 [49]: 0.3 µg/mL

5123_A06 (PGT-125) (antibody)
neutralization IC50 (pseudovirus) [1]: 0.0028 µg/mL | neutralization IC50 (pseudovirus) [2]: 0.0066 µg/mL | neutralization IC50 (pseudovirus) [3]: > 10 µg/mL | neutralization IC50 (pseudovirus) [4]: > 10 µg/mL | neutralization IC50 (pseudovirus) [5]: 0.0137 µg/mL | neutralization IC50 (pseudovirus) [6]: 0.0124 µg/mL | neutralization IC50 (pseudovirus) [7]: 0.0359 µg/mL | neutralization IC50 (pseudovirus) [8]: > 10 µg/mL | neutralization IC50 [9]: > 50 µg/mL | neutralization IC50 [10]: 0.008 µg/mL | neutralization IC50 [11]: 1.82 µg/mL | neutralization IC50 [12]: 2.09 µg/mL | neutralization IC50 [13]: 0.015 µg/mL | neutralization IC50 [14]: > 50 µg/mL | neutralization IC50 [15]: > 50 µg/mL | neutralization IC50 [16]: > 50 µg/mL | neutralization IC50 [17]: > 50 µg/mL | neutralization IC50 [18]: > 50 µg/mL | neutralization IC50 [19]: > 50 µg/mL | neutralization IC50 [20]: > 50 µg/mL | neutralization IC50 [21]: > 50 µg/mL | neutralization IC50 [22]: 2.36 µg/mL | neutralization IC50 [23]: 0.13 µg/mL | neutralization IC50 [24]: > 50 µg/mL | neutralization IC50 [25]: 1.23 µg/mL | neutralization IC50 [26]: 1.31 µg/mL | neutralization IC50 [27]: > 50 µg/mL | neutralization IC50 [28]: 42.5 µg/mL | IC50 (µg/mL), pseudovirus neutralization [29]: 0.033 µg/mL | IC50 (µg/mL), pseudovirus neutralization [30]: > 50 µg/mL | IC50 (µg/mL), pseudovirus neutralization [31]: > 50 µg/mL | IC50 (µg/mL), pseudovirus neutralization [32]: > 50 µg/mL | IC50 (µg/mL), pseudovirus neutralization [33]: > 50 µg/mL | IC50 (µg/mL), pseudovirus neutralization [34]: > 50 µg/mL | IC50 (µg/mL), pseudovirus neutralization [35]: 0.007 µg/mL | IC50 (µg/mL), pseudovirus neutralization [36]: > 50 µg/mL | IC50 (µg/mL), pseudovirus neutralization [37]: > 50 µg/mL | IC50 (µg/mL), pseudovirus neutralization [38]: > 50 µg/mL | IC50 (µg/mL), pseudovirus neutralization [39]: > 50 µg/mL | IC50 (µg/mL), pseudovirus neutralization [40]: 34.4 µg/mL | neutralization IC50 (pseudovirus) [41]: 0.006 µg/mL | neutralization IC50 (pseudovirus) [42]: 0.0055 µg/mL | neutralization IC50 (pseudovirus) [43]: 0.0106 µg/mL | neutralization IC50 (pseudovirus) [44]: > 10 µg/mL | neutralization IC50 (pseudovirus) [45]: 5.78 µg/mL | neutralization IC50 (pseudovirus) [46]: 0.0382 µg/mL | neutralization IC50 (pseudovirus) [47]: > 10 µg/mL | IC50 (µg/mL), pseudovirus neutralization [48]: > 50 µg/mL | EC50 [49]: 0.2 µg/mL
